Data: US7232671
Substitutions are numbered along the chain they refer to.

B1: full-length recombinant S1 with the Arg->Lys mutation at residue 9 (protein)
chain: DDPPATVYKYDSRPPEDVFQNGFTAWGNNDNVLDHLTGRSCQVGSSNSAFVSTSSSRRYTEVYLEHRMQEAVEAERAGRGTGHFIGYIYEVRADNNFYGAASSYFEYVDTYGDNAGRILAGALATYQSEYLAHRRIPPENIRRVTRVYHNGITGETTTTEYSNARYVSQHTRANPNPYTSRRSVASIVGTLVRMAPVIGACMARQAESSEAMAAWSERAGEAMVLVYYESIAYS
B2: S1 mutant 8-1 (Tyr8->Leu, Arg9->Glu in S1/6A) (protein)
chain: B1 chain with D1M, D2V, Y8L, K9E
B3: S1 mutant 6-1 (Asp11->Pro, Pro14->Asp in S1/6A) (protein)
chain: B1 chain with D1M, D2V, K9R, D11P, P14D
B4: S1 mutant 7-2 (Arg9->Asn, Ser12->Gly in S1/6A) (protein)
chain: B1 chain with D1M, D2V, K9N, S12G
B5: S1 mutant 5-1 (Tyr8->Phe in S1/6A) (protein)
chain: B1 chain with D1M, D2V, Y8F, K9R
B6: S1/6A (recombinant pertussis toxin S1 analog, parent construction 6A) (protein)
chain: B1 chain with D1M, D2V, K9R
B7: S1 mutant 2-2 (Ser12->Gly in S1/6A) (protein)
chain: B1 chain with D1M, D2V, K9R, S12G
B8: S1 mutant 3-1 (Asp11->Glu in S1/6A) (protein)
chain: B1 chain with D1M, D2V, K9R, D11E
B9: S1 mutant 4-1 (Arg9->Lys in S1/6A) (protein)
chain: B1 chain with D1M, D2V
B10: S1 mutant 1-1 (Arg13->Lys in S1/6A) (protein)
chain: B1 chain with D1M, D2V, K9R, R13K

target: purified bovine transducin (alpha subunit is the ADP-ribose acceptor), P04695

Question: Which transferase activity does the source give for B1 here?
Answer: transferase activity was reduced by a factor of approximately 1000

Question: B2 was tested. Which ADP-ribosyltransferase activity (cpm) did it give?
Answer: 926 cpm

Question: With B3 as the protein, how does the ADP-ribosyltransferase activity (cpm) read?
Answer: 764 cpm

Question: With B4 as the protein, how does the ADP-ribosyltransferase activity (cpm) read?
Answer: 753 cpm

Question: B5 was tested. Which ADP-ribosyltransferase activity (cpm) did it give?
Answer: 26400 ± 1320 cpm

Question: How did the ADP-ribosyltransferase activity (cpm) turn out when B6 was run?
Answer: 23400 ± 950 cpm

Question: How did the ADP-ribosyltransferase activity (cpm) turn out when B7 was run?
Answer: 22300 ± 2100 cpm

Question: For B8, which ADP-ribosyltransferase activity (cpm) is on record?
Answer: 13500 ± 1600 cpm

Question: How did the ADP-ribosyltransferase activity (cpm) turn out when B9 was run?
Answer: 754 cpm

Question: For B10, which ADP-ribosyltransferase activity (cpm) is on record?
Answer: 7390 ± 1370 cpm
